Positions count from the first letter of the chain named. Names and notes keep the numbering of the source. Blank lines part the entries; values can stand above or below the binder they belong to.
What was measured:
[1] = biological target: T1, FLAG-Eps8/pIRSp53 complex (human | human (from the printed UniProt …, UniProt Q12929 1-822)); Q9UQB8-4 1-521, natively phosphorylated in HEK293T cells (as m4)); assay: pull-down; anti-Flag magnetic beads with or without the FLAG-Eps8/pIRSp53 complex; 14-3-3θ detected; details: both partners purified
T1 construct: Eps8, human, UniProt Q12929, full length; IRSp53 (BAIAP2), isoform-4, UniProt Q9UQB8-4, full length; source: formed from purified 2xFLAG-Eps8 (HEK293T) and purified pIRSp53 (serum-starved HEK293T)

[2] = biological target: T2, pIRSp53FS (human (from the printed UniProt entry), UniProt Q9UQB8-4 1-521, S519C, natively phosphorylated in HEK293T cells; fluorescein maleimide / rhodamine maleimide on C230 and C519); assay: other fluorescence titration; intramolecular FRET sensor (fluorescein/rhodamine on C230 and C519 of IRSp53); Cdc42, Eps8 and/or 14-3-3θ titrated into the sensor, also back to back; 20 °C; 25 mM Tris-HCl pH 7.5, 150 mM NaCl, 1 mM MgCl2, 5% glycerol, 0.1 mM TCEP; observed Kd (Kobs) from the fits; details: both partners purified
T2 construct: IRSp53 (BAIAP2), isoform-4, UniProt Q9UQB8-4, full length, S519C; Expressed and purified as m4; also called IRSp53 FRET sensor; phosphorylated IRSp53 (mutant S519C)
T2 sequence (looked up): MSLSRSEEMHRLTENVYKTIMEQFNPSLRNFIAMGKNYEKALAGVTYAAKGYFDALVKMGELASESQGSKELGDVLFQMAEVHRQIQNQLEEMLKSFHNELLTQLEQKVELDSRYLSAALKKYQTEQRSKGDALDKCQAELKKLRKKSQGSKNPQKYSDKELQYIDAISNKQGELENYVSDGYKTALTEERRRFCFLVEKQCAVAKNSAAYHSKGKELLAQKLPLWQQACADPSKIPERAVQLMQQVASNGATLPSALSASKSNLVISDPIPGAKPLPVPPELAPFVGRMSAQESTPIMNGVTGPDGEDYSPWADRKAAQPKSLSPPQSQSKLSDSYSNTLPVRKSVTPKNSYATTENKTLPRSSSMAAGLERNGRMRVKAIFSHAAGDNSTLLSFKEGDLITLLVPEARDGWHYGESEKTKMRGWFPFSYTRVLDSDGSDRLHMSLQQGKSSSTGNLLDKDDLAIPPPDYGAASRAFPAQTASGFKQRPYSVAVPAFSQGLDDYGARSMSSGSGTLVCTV

[3] = biological target: the molecule itself; assay: crystal structure; 14-3-3θ pre-incubated with singly (2.5:1) or doubly (0.6:1) phosphorylated IRSp53 peptides; hanging drop, 18 °C; resolution 2.0 to 2.9 Å
[4] = biological target: T3, 2xFLAG-Eps8 (human, UniProt Q12929 1-822); assay: pull-down; anti-Flag magnetic beads with or without the FLAG-Eps8/pIRSp53 complex; 14-3-3θ detected; details: both partners purified
T3 construct: Eps8, human, UniProt Q12929, full length; also called FLAG-tagged Eps8

[5] = biological target: T4, pM234FS (human (from the printed UniProt entry), UniProt Q9UQB8-4 1-521, T340A | T360A | S366A | S519C, fluorescein / rhodamine labels as in pIRSp53FS (C230 and C519)); assay: other fluorescence titration; intramolecular FRET sensor (fluorescein/rhodamine on C230 and C519 of IRSp53); Cdc42, Eps8 and/or 14-3-3θ titrated into the sensor, also back to back; 20 °C; 25 mM Tris-HCl pH 7.5, 150 mM NaCl, 1 mM MgCl2, 5% glycerol, 0.1 mM TCEP; observed Kd (Kobs) from the fits; details: both partners purified
T4 construct: IRSp53 (BAIAP2), isoform-4, UniProt Q9UQB8-4, full length, FRET sensor (S519C) with T340A/T360A/S366A; also called modified FRET sensor T340A/T360A/S366A; source: serum-starved HEK293T, purified, labelled
T4 sequence (looked up): T2 sequence (looked up) with T340A, T360A, S366A

T1 sequence (Q12929 whole entry, canonical isoform, one chain of several): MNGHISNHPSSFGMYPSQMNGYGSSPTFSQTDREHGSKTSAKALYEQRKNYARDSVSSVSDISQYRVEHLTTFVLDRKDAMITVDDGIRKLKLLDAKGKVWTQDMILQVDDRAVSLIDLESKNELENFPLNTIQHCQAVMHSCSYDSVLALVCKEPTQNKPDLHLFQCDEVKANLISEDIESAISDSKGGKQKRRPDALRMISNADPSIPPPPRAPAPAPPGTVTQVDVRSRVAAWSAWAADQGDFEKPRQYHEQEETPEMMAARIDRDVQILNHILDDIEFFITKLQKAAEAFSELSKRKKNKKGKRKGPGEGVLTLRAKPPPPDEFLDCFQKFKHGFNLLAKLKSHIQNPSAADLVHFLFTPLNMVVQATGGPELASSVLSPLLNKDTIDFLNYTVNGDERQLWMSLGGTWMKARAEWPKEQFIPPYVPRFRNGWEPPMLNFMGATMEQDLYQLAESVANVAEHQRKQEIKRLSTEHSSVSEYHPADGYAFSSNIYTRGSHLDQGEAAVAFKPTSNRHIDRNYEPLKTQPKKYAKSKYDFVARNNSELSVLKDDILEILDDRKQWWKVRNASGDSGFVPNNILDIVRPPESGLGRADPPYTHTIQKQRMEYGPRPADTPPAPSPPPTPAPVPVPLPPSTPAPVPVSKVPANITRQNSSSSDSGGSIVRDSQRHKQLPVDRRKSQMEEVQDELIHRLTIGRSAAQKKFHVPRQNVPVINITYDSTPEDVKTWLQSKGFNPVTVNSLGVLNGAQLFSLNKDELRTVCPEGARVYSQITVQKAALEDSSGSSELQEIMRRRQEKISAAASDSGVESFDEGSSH
T3 sequence (Q12929 whole entry): as the sequence (Q12929 whole entry, canonical isoform, one chain of several) above

- binding result [1]: binds
- Kd [2]: 0.079 µM
B1: 14-3-3θ (natural protein, human)
chain: MEKTELIQKAKLAEQAERYDDMATCMKAVTEQGAELSNEERNLLSVAYKNVVGGRRSAWRVISSIEQKTDTSDKKLQLIKDYREKVESELRSICTTVLELLDKYLIANATNPESKVFYLKMKGDYFRYLAEVACGDDRKQTIDNSQGAYQEAFDISKKEMQPTHPIRLGLALNFSVFYYEILNNPELACTLAKTAFDEAIAELDTLNEDSYKDSTLIMQLLRDNLTLWTSDSAGEECDAAEGAEN
notes: 14-3-3θ, human, UniProt P27348; also called 14-3-3 theta; 14-3-3τ
- binding result [3]: binds

- binding result [4]: binds
B2: IRSp53-FLAG (wild type), natively phosphorylated (natural protein, human (from the printed UniProt entry), UniProt Q9UQB8-4 1-521, looked up)
chain: T2 sequence (looked up) with C519S
modifications: phosphorylated in HEK293T cells at S325, T340, T360, S366 and a residue within 452SSST455, most likely S454 (mass spectrometry of the purified 14-3-3-binding-competent fraction)
notes: also called pIRSp53; WT IRSp53-FLAG; source: HEK293T, transfected, in lysate; not shown: FLAG, C-terminal, kept

- binding result [5]: binds
- Kd [2]: 19.1 µM
B3: GMPPNP-Cdc42 (constitutively active mutant G12V) (domain or fragment)
chain: not shown
notes: Cdc42, human, residues 1-178, G12V; Loaded with GMPPNP; also called GNPPNP-Cdc42 (G12V mutant); source: E. coli BL21(DE3), purified
